What all share (settings): both partners purified
For experiment [1], the target named is T1, amyloid-β (1–42) (UniProt P05067 672-713).
T1 construct: also called Aβ42; Aβ (1–42); source: bought: Bachem (Bubendorf, Switzerland); suspended in HFIP, lyophilized
Kind of experiment: SPR; Biacore T200; Aβ42 immobilised on a CM-5 chip by amine coupling (900 RU); peptides as analytes 50 to 0.02 μM; 10 mM HEPES + 50 mM NaCl + 0.05% Tween 20, 25 °C, 30 μL/min; multicycle; steady-state affinity model.

Experiment [2] deals with T1, amyloid-β (1–42). The description is as above. The source holds these as a separate data set.
For experiment [3], the target named is T1, amyloid-β (1–42). Kind of experiment: SPR; Biacore T200; CDP-1 immobilised by amine coupling (1916.5 RU); Aβ42 as analyte 1.85 to 0.02 μM; 10 mM HEPES + 50 mM NaCl + 0.05% Tween 20, 25 °C; multicycle; methods: 1:1 kinetic fit with global Rmax (the table's head says steady-state fitting). In general terms: SPR reads the build-up and loss of mass on a sensor chip optically.

No end group written: not given here.

B1: crotamine derivative peptide CDP-6 (peptide)
peptide: Ac-KMDSRWRWKCSKK
modifications: not fully specified (C-terminus); also: methylated at the C-terminus
notes: positions worked out from Lys27–Lys39; […]; L-amino acids; source: synthetic peptide (Genscript, purity >95%)
As usually defined, the Kd is the concentration at which binding is half-saturated. Turning to B1, in the experiment with amyloid-β (1–42) [1], the Kd is 26.4 µM.

B2: crotamine derivative peptide CDP-2 (peptide)
peptide: Ac-KMDSRWRWKSSKK
modifications: not fully specified (C-terminus); also: methylated at the C-terminus
notes: […]; L-amino acids; source: synthetic peptide (Genscript, purity >95%)
As to B2, the Kd in the experiment with amyloid-β (1–42) [2] amounted to 3.25 µM.

B3: crotamine derivative peptide CDP-1 (peptide)
peptide: KMDCRWRWKCCKK
modifications: acetylated at the N-terminus; methylated at the C-terminus
notes: crotamine of Crotalus durissus terrificus venom, Lys27 to Lys39; […]; L-amino acids; For SPR this peptide was immobilised by amine coupling (1916.5 RU); also called crotamine (Lys27–Lys39); mother L-peptide CDP-1; source: synthetic peptide (Genscript, purity >95%)
Regarding B3, the Kd in the experiment with amyloid-β (1–42) [3] came to 0.41 µM.

The values are drawn from PMC11258689, “A Snake Venom Peptide and Its Derivatives Prevent Aβ42 Aggregation and Eliminate Toxic Aβ42 Aggregates In Vitro” (ACS Chemical Neuroscience, 2024).
